The test system of one series is NKT-cells. The experiment in a line: Expansion of NKT-cells in PBMC cultures, CD1d/KRN7000 tetramer staining. It counts as cell-based, human. The settings on record: 100 ng/ml KRN7000 pulsed on MART-1 mRNA-loaded CD40L base process DCs, versus vehicle; FIG. 15a. How it is done:
(§1) 100 ng/ml of KRN7000 was pulsed onto the CD40L base process DCs immediately post electroporation in combination with 500 U/ml IFN-γ and 1 μg/ml PGE2, for 24 hrs of culture.
(§2) DCs were generated as described above, employing the ‘CD40L base process’, and loaded with mRNA encoding MART-1. Post electroporation, DCs were incubated with KRN7000, IFN-γ and PGE2. DCs and PBMCs were co-cultured at a 1:10 ratio in the presence of 20 U/ml IL-2. PBMCs were restimulated three times under the same conditions, and the frequency of CTL induction determined by staining with MART-1/A2 tetramers, and the expansion of NKT-cells enumerated using KRN7000/CD1d tetramers by FACS.

For a further series, the system named is MART reactive T-cells. Put plainly: Induction of MART-1 specific CTLs in PBMC cultures, MART-1/HLA-A2 tetramer staining. Format: cell-based, human. The settings on record: KRN7000 pulsed on MART-1 mRNA transfected DC, versus vehicle; FIG. 15b. How it is done:
as §1, §2

Series [1] deals with DCs. The experiment in a line: Transwell migration assay of DCs to lymph node chemokines CCL19 and 21. It counts as cell-based, human. The settings on record: 1 μg/ml PGE2 in addition to IFN-γ, CD40L mRNA transfected DCs; FIG. 8. The method, then: Chemotaxis of DCs was measured by migration through a 8 μm pore size polycarbonate filter in 24 well transwell chambers (coming Costar, Acton, MA). 5% human AB serum in Iscoves modified Dulbecco's medium or AIM-V medium containing 3-300 ng/ml CCL19, 5-250 ng/ml CCL21, a combination of both or medium alone was added to the lower chamber. 1−5×10^5 DCs in 0.1 ml were added to the upper chamber and incubated for 2-3 hours at 37° C. Lower chamber harvested into 5 ml tubes (BD Biosciences) and re-suspended in 0.1 ml PBS and viable cell counts undertaken using trypan blue.

In series [2] the test system is DCs. Put plainly: IL-12p70 and IL-10 secretion by DCs undergoing maturation (ELISA of culture supernatants). Format: cell-based, human. The method, then:
Human PBMCs were isolated from Leukapheresis collections from healthy volunteers provided by Life Blood (Memphis, Tenn.). PBMCs were prepared by Ficoll-Histopaque density centrifugation and washed four times in PBS at room temperature. 2×10^8 PBMCs were re-suspended in 30 ml AIM-V medium and allowed to adhere to […] plastic flasks for 2 hours at 37° C. Non-adherent cells were removed and remaining cells cultured in X-VIVO 15 medium, supplemented with GM-CSF (1000 U/ml) and IL-4 (1000 U/ml), for 5-6 days at 37 C, 5% CO2.
Prior to electroporation, DCs were harvested and washed in PBS and then re-suspended in chilled Viaspane (Barr Laboratories) at 4×10^7/ml in 0.5 ml or 2.5×10^7/ml in 0.2 ml and placed on ice. DCs were mixed with mRNA (1 or 2 μg/10^6 for mRNA encoding antigen and 4 μg/10^6 for CD40L mRNA) and placed in a 4 mm gap electroporation cuvette and electroporated using Biorad apparatus. Immediately after electroporation, DCs were washed in X-VIVO 15 medium and finally re-suspended in X-VIVO 15 supplemented with GM-CSF (800 U/ml) and IL-4 (500 U/ml) at 1×10^6/ml and cultured for either 4 or 24 hours at 37° C. in low adherence six well plates (BD Biosciences, Franklin Lakes, N.J.). Additional maturation stimuli, described below, were also added at this point.
Following electroporation, DCs transfected with CD40L mRNA were treated with IFN-γ (1000 U/ml) or TNF-α (10 ng/ml) or a combination of IFN-γ and PGE2 (1 μg/ml). By comparison, immature DCs were transfected with various antigen-encoding mRNAs and were then treated with a “cytokine cocktail” comprising of TNF-α (10 ng/ml), IL-1β (10 ng/ml), IL-6 (100 ng/ml) and PGE2 (1 μg/ml) or soluble CD40L (200 ng/ml) plus enhancer (1 μg/ml) with either simultaneous or sequential addition of 1000 U/ml IFN-γ.
The method as laid out by BD Pharmingen for IL-12 and IL-10 ELISA sets (BD Pharmingen) using BD Opt EIA reagent set B pH 9.5. Briefly, ELISA plates (BD Biosciences) were coated with anti-IL-12p70 or anti-IL-10 ELISA capture antibody in coating buffer for 24 hours at 4° C. Plates underwent blocking with 200 μl per well 10% FCS/PBS for one hour prior to the addition of standards (BD Pharmingen) and supernatant samples, in duplicate, at 100 μl per well and incubated at room temperature for 2 hours. Plates were washed and anti-cytokine detection antibody added, incubated for one hour, the plates washed and solutions replaced with 100 μl of streptavidin-HRP and further incubated for one hour at room temperature. […] Plate analysis undertaken using Bio-Tek instruments ELx800 plate reader with KC junior software (Winooski, Vt.). […] Because the assays were set up so that 1 ml corresponds to 10^6 DCs, the results can also be expressed as number of picograms/10^6 DCs. […]
For orientation: An ELISA detects its analyte on a solid surface through an enzyme-linked reagent.

Series [3] has as its target human CD40L protein translated from transfected CD40L mRNA (CD40L WT, >400 nucleotide polyA tail) (human) (UniProt P29965). Put plainly: cell-based or functional assay.
The target of series [4] is human CD40 (the receptor for CD40L) on monocyte-derived dendritic cells (human) (UniProt P25942). Put plainly: cell-based or functional assay.
UniProt P25942, sequence (P25942 21-277 limits assumed): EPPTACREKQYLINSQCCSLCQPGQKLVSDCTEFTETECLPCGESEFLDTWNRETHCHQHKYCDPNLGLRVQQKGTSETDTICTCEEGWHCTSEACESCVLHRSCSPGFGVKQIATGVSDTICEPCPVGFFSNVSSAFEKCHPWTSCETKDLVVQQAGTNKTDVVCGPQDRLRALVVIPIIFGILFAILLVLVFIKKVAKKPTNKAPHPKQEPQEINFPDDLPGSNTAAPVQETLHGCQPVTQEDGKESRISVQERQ

With `CCCCCCCCCCCCCCCCCCCCCCCCCC(=O)N[C@@H](CO[C@H]1O[C@H](CO)[C@H](O)[C@H](O)[C@H]1O)[C@H](O)[C@H](O)CCCCCCCCCCCCCC` [KRN7000, (2S,3S,4R)-1-O-(alpha-D-galactopyranosyl)-2-(N-hexacosanoylamino)-1,3,4-octadecanetriol], the “frequency of NKT-cells in PBMC cultures” value with NKT-cells is “increase the frequency of NKT-cells”. Moreover, the “frequency of MART reactive T-cells” value in the series with MART reactive T-cells was “significantly increases the frequency of MART reactive T-cells”.

For the molecule `CCCCC[C@H](O)/C=C/[C@H]1[C@H](O)CC(=O)[C@@H]1C/C=C\CCCC(=O)O` [PGE2], in the series with DCs [1], the DC migration result is listed as “enables the maturing DCs to migrate”.

As for TNF-α, in the series on DCs [2] (10 ng/ml TNF-α substituted for IFN-γ, CD40L mRNA transfected DCs, FIG. 5b), the IL-12 production result was “supports IL-12 production, but at reduced levels”.

“blocking CD40L monoclonal antibody 24-31 (eBioscience)”: in series [3], the IL-12p70 (pg/ml), "Cocktail" matured and reactivated DCs co-cultured with HeLa/>400 polyA + IFN-γ + 24-31 is 2.5 pg/mL; the IL-12p70 release from CD40L-mRNA-transfected DCs cultured with IFN-γ and 10 or 50 µg/ml blocking anti-CD40L antibody amounted to 50%.

For “human CD40L protein translated from transfected CD40L mRNA (CD40L WT, >400 nucleotide polyA tail) (from UniProt P29965 1-261) (ligand)”, in series [4], the IL-12p70 (pg/ml), "Cocktail" matured and reactivated DCs co-cultured with HeLa/>400 polyA + IFN-γ was determined as 26.3 pg/mL; the IL-12p70 (pg/ml), immature DCs co-cultured with HeLa/>400 polyA + IFN-γ amounted to 372 pg/mL.

For the molecule “pCR2.1 CD40L WT Delta X-E: CD40L RNA transcribed from plasmid modified by removal of XbaI-EcoRV fragment with three cryptic ATG codons (sense GCATGATCGAAACATACAACC; RNA transcript of DNA sequence, chemistry not fully specified)”, the “induction of IL-12 expression by transfected DCs” value in the series on DCs [2] (two independent DC transfection experiments, about 20 hrs post transfection, FIG. 18) is listed as “performed better than the current CD40L reference standard”.

B1: IFN-γ: IFN-γ purchased from R&D Systems, first maturation signal (protein, listed as Homo sapiens)
chain: MKYTSYILAFQLCIVLGSLGCYCQDPYVKEAENLKKYFNAGHSDVADNGTLFLGILKNWKEESDRKIMQSQIVSFYFKLFKNFKDDQSIQKSVETIKEDMNVKFFNSNKKKRDDFEKLTNYSVTDLNVQRKAIHELIQVMAELSPAAKTGKRKRSQMLFQGRRASQ
For the molecule B1, in the series on DCs [2] (DCs transfected with 4 μg CD40L mRNA per million cells, FIG. 4), the “IFN-γ required to support optimal induction of IL-12p70” value is listed as “at least 100 U/ml”. Also, the IL-10 production result with DCs [2] (IFN-γ versus TNF-α as co-maturation factor, CD40L mRNA transfected DCs, FIG. 5c) is listed as “lower levels of IL-10 production than does TNF-α”.

The values are drawn from patent US20080145931A1, “Mature Dendritic Cell Compositions and Methods of Culturing Same” (Argos Therapeutics, Inc., priority 2004, published 2008).
